Data published in patent US20240342298A1 (IMMUNWORK, published 2024).

Tests used:
[1] = biological target: T1, human CD38 (human, UniProt P28907 1-300); test: flow cytometry on live H929 cells, PE anti-human IgG-Fc detection
T1 construct: whole, on cells; also called full-length human CD38

[2] = biological target: T1, human CD38; test: flow cytometry on live U266-CD38+ cells, PE anti-human IgG-Fc detection

EC50 [1]: 1020 pM | EC50 [2]: 130 pM
B1: daratumumab (antibody, V domains shown)
VH: EVQLLESGGGLVQPGGSLRLSCAVSGFTFNSFAMSWVRQAPGKGLEWVSAISGSGGGTYYADSVKGRFTISRDNSKNTLYLQMNSLRAEDTAVYFCAKDKILWFGEPVFDYWGQGTLVTVSS
VL: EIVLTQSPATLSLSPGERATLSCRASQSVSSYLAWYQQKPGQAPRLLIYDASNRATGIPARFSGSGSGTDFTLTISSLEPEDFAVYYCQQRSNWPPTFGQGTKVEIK
